Measurements published in publication doi:10.1101/2021.03.25.436940.

Target: T1, OsGSTU5 (Oryza sativa, UniProt Q0J294 6-233)
T1 sequence: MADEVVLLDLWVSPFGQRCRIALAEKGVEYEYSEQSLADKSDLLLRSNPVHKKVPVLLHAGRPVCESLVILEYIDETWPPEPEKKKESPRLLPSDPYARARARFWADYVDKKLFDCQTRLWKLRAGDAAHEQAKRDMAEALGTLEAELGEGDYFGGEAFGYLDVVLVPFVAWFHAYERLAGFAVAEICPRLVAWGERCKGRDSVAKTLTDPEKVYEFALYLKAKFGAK
Test: EMSA

B1: 39-nt experimental oligo (ssDNA) (ssDNA)
DNA: GCGGTGGAAGTAGCAACAGCGGTTCTAGCGGCAGCGGCG
binding result: no binding
